Measurements from paper PMC3940072 (Journal of molecular biology, 2013).

Tests used:
KaiC-R468C = molecular target: T1, KaiC-R468C (Synechococcus elongatus, UniProt Q79PF4 1-519, R468C); assay: native gel or EMSA
T1 sequence: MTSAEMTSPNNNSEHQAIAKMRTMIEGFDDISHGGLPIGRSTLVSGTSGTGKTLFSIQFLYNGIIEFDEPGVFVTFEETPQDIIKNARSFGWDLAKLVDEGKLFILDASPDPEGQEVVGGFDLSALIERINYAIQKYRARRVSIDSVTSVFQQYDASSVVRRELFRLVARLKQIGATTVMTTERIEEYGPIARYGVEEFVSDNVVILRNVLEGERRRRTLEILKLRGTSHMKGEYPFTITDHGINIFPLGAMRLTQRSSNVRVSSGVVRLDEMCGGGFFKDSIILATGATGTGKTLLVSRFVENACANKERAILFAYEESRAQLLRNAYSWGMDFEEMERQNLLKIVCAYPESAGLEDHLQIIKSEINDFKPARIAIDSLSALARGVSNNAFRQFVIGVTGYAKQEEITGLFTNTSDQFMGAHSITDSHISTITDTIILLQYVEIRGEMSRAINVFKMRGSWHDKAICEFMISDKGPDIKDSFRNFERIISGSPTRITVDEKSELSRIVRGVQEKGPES

cryo-EM structure = molecular target: the molecule itself; assay: cryo-EM structure

B1: wild-type Synechococcus elongatus KaiB (natural protein, UniProt Q79PF5 1-102, looked up)
chain: MSPRKTYILKLYVAGNTPNSVRALKTLKNILEVEFQGVYALKVIDVLKNPQLAEEDKILATPTLAKVLPLPVRRIIGDLSDREKVLIGLDLLYGELQDSDDF
binding result (KaiC-R468C): binds

B2: KaiC-Δ489 (C-terminally truncated form of S. elongatus KaiC) (domain or fragment, Synechococcus elongatus, UniProt Q79PF4 1-489, looked up)
chain: MTSAEMTSPNNNSEHQAIAKMRTMIEGFDDISHGGLPIGRSTLVSGTSGTGKTLFSIQFLYNGIIEFDEPGVFVTFEETPQDIIKNARSFGWDLAKLVDEGKLFILDASPDPEGQEVVGGFDLSALIERINYAIQKYRARRVSIDSVTSVFQQYDASSVVRRELFRLVARLKQIGATTVMTTERIEEYGPIARYGVEEFVSDNVVILRNVLEGERRRRTLEILKLRGTSHMKGEYPFTITDHGINIFPLGAMRLTQRSSNVRVSSGVVRLDEMCGGGFFKDSIILATGATGTGKTLLVSRFVENACANKERAILFAYEESRAQLLRNAYSWGMDFEEMERQNLLKIVCAYPESAGLEDHLQIIKSEINDFKPARIAIDSLSALARGVSNNAFRQFVIGVTGYAKQEEITGLFTNTSDQFMGAHSITDSHISTITDTIILLQYVEIRGEMSRAINVFKMRGSWHDKAIREFMISDKGPDIKDSFRNFERI
modifications: persistently phosphorylated (hyper-phosphorylated); sites not determined for this sample
stoichiometry N (cryo-EM structure): 6
